Results from doi:10.1101/2022.06.21.497044 (bioRxiv, 2022).
Changes are numbered by the printed parent chain.

Columns and labels:
[1] = target: T1, BBX30 (miP1b) (Arabidopsis thaliana, UniProt Q1G3I2 1-117); test: EMSA
T1 sequence: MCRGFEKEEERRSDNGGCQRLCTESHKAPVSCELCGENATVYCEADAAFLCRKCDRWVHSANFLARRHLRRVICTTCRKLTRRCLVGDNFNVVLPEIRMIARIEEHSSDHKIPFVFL

[2] = target: T2, BBX31 (miP1a) (Arabidopsis thaliana, UniProt Q9LRM4 1-121); test: EMSA
T2 sequence: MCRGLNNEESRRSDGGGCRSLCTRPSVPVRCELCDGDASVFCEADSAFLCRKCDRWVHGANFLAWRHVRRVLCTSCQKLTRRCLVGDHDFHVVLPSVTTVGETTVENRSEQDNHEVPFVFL

[3] = target: T3, GST-ABI5 (Arabidopsis thaliana, UniProt Q9SJN0 1-442); test: pull-down
T3 sequence: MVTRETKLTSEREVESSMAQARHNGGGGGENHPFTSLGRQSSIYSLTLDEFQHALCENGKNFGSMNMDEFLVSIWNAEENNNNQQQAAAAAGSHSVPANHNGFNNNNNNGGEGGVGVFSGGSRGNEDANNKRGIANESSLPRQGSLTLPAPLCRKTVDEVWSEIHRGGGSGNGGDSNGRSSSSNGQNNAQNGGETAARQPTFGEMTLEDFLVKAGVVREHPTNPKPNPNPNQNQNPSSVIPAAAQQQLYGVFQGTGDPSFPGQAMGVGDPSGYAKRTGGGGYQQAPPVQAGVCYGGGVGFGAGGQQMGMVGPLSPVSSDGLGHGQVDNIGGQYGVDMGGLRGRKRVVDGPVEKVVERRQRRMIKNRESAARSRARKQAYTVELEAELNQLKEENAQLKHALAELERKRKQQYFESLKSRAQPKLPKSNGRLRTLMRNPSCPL

[4] = target: T4, GST-ABI5 (Arabidopsis thaliana, UniProt Q9SJN0 1-442); test: EMSA
T4 sequence: T3 sequence

B1: EM6 promoter probe (dsDNA)
DNA 1: AATAAAGTCAGACACGTGGCATGTCACCAA
DNA 2: TTGGTGACATGCCACGTGTCTGACTTTATT
binding result [1]: no binding | binding result [2]: no binding

B2: His-BBX31 (natural protein)
chain: T2 sequence
binding result [3]: binds

B3: His-BBX30 (natural protein)
chain: T1 sequence
binding result [3]: binds

B4: BBX30 promoter probe (dsDNA)
DNA 1: GTCAATATTTTTCCACGTGTACAACCAGTTTA
DNA 2: TAAACTGGTTGTACACGTGGAAAAATATTGAC
binding result [4]: binds

B5: mutBBX30 probe (dsDNA)
DNA 1: B4 DNA 1 with C16A, G17A, T18A, G19A
DNA 2: B4 DNA 2 with C14T, A15T, C16T, G17T
binding result [4]: no binding

B6: ABI5 promoter probe (dsDNA)
DNA 1: GCAAGAAACAGAAGAGAGACACGTGCAGGACACGTGTCGTCCGCAGCCGAACGGA
DNA 2: TCCGTTCGGCTGCGGACGACACGTGTCCTGCACGTGTCTCTCTTCTGTTTCTTGC
binding result [1]: no binding | binding result [2]: no binding

B7: BBX31 promoter probe (dsDNA)
DNA 1: AAATAACAGGGCAAGATTCATCCACGTGTCCAACAACAACACAACACAAA
DNA 2: TTTGTGTTGTGTTGTTGTTGGACACGTGGATGAATCTTGCCCTGTTATTT
binding result [4]: binds

B8: mutBBX31 probe (dsDNA)
DNA 1: B7 DNA 1 with C23A, A24C, T27G
DNA 2: B7 DNA 2 with A24C, T27G, G28T
binding result [4]: no binding
